Laboratory results as given in patent US20230357386A1 (EISAI R AND D MANAGEMENT, published 2023).
Changes are numbered by the printed parent chain.

B1: antibody A (human anti-EphA4 monoclonal antibody) (antibody, V domains shown)
VH: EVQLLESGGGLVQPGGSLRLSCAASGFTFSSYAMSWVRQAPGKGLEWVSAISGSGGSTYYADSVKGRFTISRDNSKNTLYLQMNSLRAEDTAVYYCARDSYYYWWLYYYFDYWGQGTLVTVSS
VL: SSELTQDPAVSVALGQTVRITCQGDSLRSYYASWYQQKPGQAPVLVIYGKNNRPSGIPDRFSGSSSGNTASLTITGAQAEDEADYYCQSSYSSSYSYVFGGGTKLTVLG
notes: Human IgG2 / lambda, from a phage library scFv converted to IgG; made in Expi293F or CHOK1SV cells
B2: antibody B (human anti-EphA4 monoclonal antibody) (antibody, human IgG1, lambda, V domains shown)
VH: EVQLLESGGGLVQPGGSLRLSCAASGFTFSSFAMSWVRQAPGKGLEWVSAISGSGGSTYYADSVKGRFTISRDNSKNTLYLQMNSLRAEDTAVYYCARDDYYPYWWYYYYFDYWGQGTLVTVSS
VL: B1 VL with Y31F
notes: Human IgG1/2 (IgG1 CH1 and hinge, IgG2 CH2 and CH3) / lambda; made in Expi293F or CHOK1SV cells

How the values were obtained:
[1] = biological target: T1, monkey EphA4 extracellular domain-SEAP-His protein (monkey); experiment: ELISA: monkey EphA4 extracellular domain-SEAP-His captured by anti-6-His antibody, detection with HRP anti-human IgG Fc
T1 construct: not shown: SEAP and histidine tag
T1 sequence (chain, as listed by the source): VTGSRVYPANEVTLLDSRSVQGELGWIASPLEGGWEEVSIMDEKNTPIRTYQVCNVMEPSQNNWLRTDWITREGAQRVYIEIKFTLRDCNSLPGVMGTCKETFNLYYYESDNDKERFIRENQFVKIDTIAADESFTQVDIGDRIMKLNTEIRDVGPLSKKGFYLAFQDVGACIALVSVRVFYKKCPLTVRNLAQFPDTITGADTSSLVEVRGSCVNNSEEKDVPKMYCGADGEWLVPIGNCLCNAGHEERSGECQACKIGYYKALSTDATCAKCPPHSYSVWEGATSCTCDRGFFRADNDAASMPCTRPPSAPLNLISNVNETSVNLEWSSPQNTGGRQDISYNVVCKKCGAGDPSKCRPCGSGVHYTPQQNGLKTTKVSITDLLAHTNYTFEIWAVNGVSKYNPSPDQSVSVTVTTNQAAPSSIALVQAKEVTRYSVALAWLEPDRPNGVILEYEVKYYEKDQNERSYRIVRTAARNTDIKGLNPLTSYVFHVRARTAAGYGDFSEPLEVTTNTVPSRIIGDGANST
Description: (§1) The antibody A and the antibody B were evaluated for their binding activity against each EphA4 according to the following steps. Each well of a 96-well plate (Nunc) was coated with a rabbit anti-6-His antibody (Bethyl Laboratories, Inc.). After incubation at room temperature for 1 hour, each well was blocked with 1% BlockAce (KAC Co., Ltd.) overnight at 4° C. After washing with 0.02% Tween 20/PBS three times, each of the mouse, rat, monkey and human EphA4 extracellular domain-SEAP-His proteins (final concentration: 1 nM) was seeded in each well and incubated at room temperature for 1 hour. After washing three times, the antibody A or the antibody B (0, 0.00013, 0.00064, 0.0032, 0.016, 0.08, 0.4, 2, and 10 µg/mL) was added to each well and incubated at room temperature for 1 hour. After washing three times, a horseradish peroxidase-labeled rabbit anti-human IgG Fcy fragment antibody (Jackson ImmunoResearch Laboratories, Inc.) was added thereto and incubated at room temperature for 1 hour. After washing three times, a TMBZ (3,3′,5,5′-tetramethylbenzidine, Kirkegaard & Perry Laboratories, Inc.) solution was added to each well. An equal amount of a reaction stopping solution (2 N H₂SO₄, FUJIFILM Wako Pure Chemical Corp.) was added to each well. The absorbance at 450 nm was read using a microplate reader (Thermo Fisher Scientific Inc.).

[2] = biological target: human EphA4 fibronectin type III domain 1-MBP-His protein (human, UniProt P54764 326-439; P0AEX9 29-392 = MBP); experiment: ELISA, domain-MBP-His captured by anti-6-His antibody
Description: (§2) The antibody A, the antibody B, and human IgG (Sigma-Aldrich Co. LLC) were evaluated for their binding activity against each EphA4 according to the following steps. Each well of a 96-well plate (Nunc) was coated with a rabbit anti-6-His antibody (Bethyl Laboratories, Inc.). After incubation at room temperature for 1 hour, each well was blocked with 1% BlockAce (KAC Co., Ltd.) overnight at 4° C. After washing with 0.02% Tween 20/PBS three times, each of the human EphA4 extracellular domain-, human EphA4 ligand-binding domain-, human EphA4 fibronectin type III domain 1-, and human EphA4 fibronectin type III domain 2-MBP-His proteins or the MBP-His protein (final concentration: 1 nM) was seeded in each well and incubated at room temperature for 1 hour. After washing three times, the antibody A, the antibody B, or human IgG (10 nM) was added to each well and incubated at room temperature for 1 hour. After washing three times, a horseradish peroxidase-labeled rabbit anti-human IgG Fcy fragment antibody (Jackson ImmunoResearch Laboratories, Inc.) was added thereto and incubated at room temperature for 1 hour. After washing three times, a TMBZ (3,3′,5,5′-tetramethylbenzidine, Kirkegaard & Perry Laboratories, Inc.) solution was added to each well. An equal amount of a reaction stopping solution (2 N H₂SO₄, FUJIFILM Wako Pure Chemical Corp.) was added to each well. The absorbance at 450 nm and 650 nm was read using a microplate reader (Thermo Fisher Scientific Inc.).

[3] = biological target: human EphA4 fibronectin type III domain 2-MBP-His protein (human, UniProt P54764 436-547; P0AEX9 29-392 = MBP); experiment: as above
Description: as §2

[4] = biological target: T2, human EphA4 extracellular domain-SEAP-His protein (human); experiment: competition ELISA, captured human EphA4 ECD-SEAP-His; competitor biotinylated human Ephrin A5-Fc (0.7 nM)
T2 construct: also called Human EphA4 extracellular domain-SEAP-His10
T2 sequence (chain, as listed by the source limits assumed): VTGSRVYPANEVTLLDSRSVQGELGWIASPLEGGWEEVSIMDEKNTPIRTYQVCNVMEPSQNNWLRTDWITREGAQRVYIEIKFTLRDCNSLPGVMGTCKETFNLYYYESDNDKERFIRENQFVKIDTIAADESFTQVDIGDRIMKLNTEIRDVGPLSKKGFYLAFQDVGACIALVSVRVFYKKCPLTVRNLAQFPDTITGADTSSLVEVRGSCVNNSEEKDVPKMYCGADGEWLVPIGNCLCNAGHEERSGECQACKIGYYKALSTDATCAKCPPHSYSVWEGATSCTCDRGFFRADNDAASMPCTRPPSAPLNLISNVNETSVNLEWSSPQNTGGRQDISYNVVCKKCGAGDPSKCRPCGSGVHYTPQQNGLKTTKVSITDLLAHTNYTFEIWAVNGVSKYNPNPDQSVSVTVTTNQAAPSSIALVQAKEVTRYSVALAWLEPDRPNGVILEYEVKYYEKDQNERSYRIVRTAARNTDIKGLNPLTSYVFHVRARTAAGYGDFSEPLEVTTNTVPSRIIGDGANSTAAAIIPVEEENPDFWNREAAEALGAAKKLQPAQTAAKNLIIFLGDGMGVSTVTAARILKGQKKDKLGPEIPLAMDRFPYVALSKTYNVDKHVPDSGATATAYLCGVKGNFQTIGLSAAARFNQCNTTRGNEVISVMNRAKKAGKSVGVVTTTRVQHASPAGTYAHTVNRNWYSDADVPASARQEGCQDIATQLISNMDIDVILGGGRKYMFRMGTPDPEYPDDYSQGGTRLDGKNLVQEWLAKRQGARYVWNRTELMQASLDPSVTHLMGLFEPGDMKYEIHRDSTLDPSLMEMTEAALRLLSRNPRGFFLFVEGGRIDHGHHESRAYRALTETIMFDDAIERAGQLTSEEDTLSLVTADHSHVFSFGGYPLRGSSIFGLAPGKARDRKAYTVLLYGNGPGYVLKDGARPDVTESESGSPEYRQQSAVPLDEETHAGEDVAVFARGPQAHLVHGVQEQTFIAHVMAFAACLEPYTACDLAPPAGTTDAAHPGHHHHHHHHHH
Description: (§3) The antibody A and the antibody B were evaluated for their inhibitory activity against the binding between human EphA4 and its human ligand according to the following steps. Each well of a 96-well plate (Nunc) was coated with an anti-alkaline phosphatase antibody (Thermo Fisher Scientific Inc.). After incubation overnight at 4° C., each well was blocked with 1% BlockAce (KAC Co., Ltd.) overnight at 4° C. After washing with 0.02% Tween 20/PBS three times, the human EphA4 extracellular domain-SEAP-His protein (final concentration: 10 nM) was seeded in each well and incubated at room temperature for 1 hour. After washing three times, ligands and serially diluted antibody A or antibody B (0, 0.003, 0.01, 0.03, 0.1, 0.3, 1, 3, 10, 30, 100, 300, 1000, and 3000 nM) were added to each well. The ligands used were biotinylated human Ephrin A5-Fc chimera (R&D Systems, Inc., final concentration: 0.7 nM) and biotinylated human Ephrin B3-Fc chimera (R&D Systems, Inc., final concentration: 2.3 nM). After incubation at room temperature for 1 hour and subsequent washing three times, a horseradish peroxidase-labeled streptavidin (GE Healthcare Japan Corp.) was added thereto and incubated at room temperature for 1 hour. […] The absorbance at 450 nm was read using a microplate reader (Thermo Fisher Scientific Inc.).

[5] = biological target: T2, human EphA4 extracellular …; experiment: SPR (Biacore T200): human EphA4 extracellular domain-SEAP-His10 captured by anti-His antibody on CM5, antibody as analyte 1.6-100 nM, 1:1 fit
Description: (§4) The binding affinity of the antibody A and the antibody B to human EphA4 was determined by surface plasmon resonance (SPR) using Biacore T200 (Cytiva). First, an anti-His antibody (Cytiva, 28-9950-56) was immobilized on sensor chip CM5. The immobilization was performed by the amine coupling method using N-hydroxysuccinimide (NHS) and N-ethyl-N′-(3-dimethylaminopropyl)carbodiimide hydrochloride (EDC). Ethanolamine was used in blocking (the sensor chip and the reagents for immobilizations were all manufactured by Cytiva). The antibody was diluted with a buffer solution for immobilization (10 mM sodium acetate, pH 4.5) into 3 µg/mL and immobilized on the sensor chip according to the protocol attached to Biacore T200. Human EphA4 extracellular domain-SEAP-His10 was diluted with a running buffer solution HBS-EP+ (Cytiva, BR-1001-69), injected onto a flow cell for 120 seconds, and captured (amount of the antibody captured: approximately 6 RU). Subsequently, the antibody A or the antibody B serially diluted in the range of 100, 50, 25, 12.5, 6.3, 3.2, 1.6, and 0 nM using HBS-EP+ was added to the sensor chip for 120 seconds. Binding reaction curves were sequentially observed at the time of the addition (association phase, 120 sec) and after the completion of the addition (dissociation phase, 600 sec). After the completion of each observation, the sensor chip was regenerated by the addition of 3 M MgCl₂ (60 sec). The obtained binding reaction curves were subjected to fitting analysis using 1:1 binding models and software BIA evaluation attached to the system to calculate the binding affinity (KD = kd / ka) to human EphA4. The experiment mentioned above was carried out three times, and an average value of each parameter was calculated.

[6] = biological target: T2, human EphA4 extracellular …; experiment: competition ELISA, captured human EphA4 ECD-SEAP-His; competitor biotinylated human Ephrin B3-Fc (2.3 nM)
Description: as §3

[7] = biological target: T3, rat EphA4 extracellular domain-SEAP-His protein (rat, UniProt Q03137 20-547 (mouse entry)); experiment: ELISA: rat EphA4 extracellular domain-SEAP-His captured by anti-6-His antibody, detection with HRP anti-human IgG Fc
T3 construct: not shown: SEAP and histidine tag
Description: as §1

[8] = biological target: T2, human EphA4 extracellular …; experiment: SPR (Biacore T200), EphA4 ECD-SEAP-His10 captured by anti-His antibody, antibody as analyte, 1:1 model, mean of three runs
Description: as §4, with “Binding reaction curves were sequentially observed at the time of the addition (association phase, 120 sec) and after the completion of the addition (dissociation phase, 600 sec). After the completion of each observation, the sensor chip was regenerated by the addition of 3 M MgCl₂ (60 sec). The obtained binding reaction curves were subjected to fitting analysis using 1:1 binding models and software BIA evaluation attached to the system to calculate the binding affinity (KD = kd / ka) to human EphA4.” left out

[9] = biological target: T4, human EphA4 extracellular domain-MBP-His protein (human); experiment: ELISA, domain-MBP-His captured by anti-6-His antibody, antibody 10 nM
T4 construct: also called human EphA4 extracellular domain (ECD); ECD
Description: as §2, with “An equal amount of a reaction stopping solution (2 N H₂SO₄, FUJIFILM Wako Pure Chemical Corp.) was added to each well.” left out

[10] = biological target: T2, human EphA4 extracellular …; experiment: ELISA: human EphA4 extracellular domain-SEAP-His captured by anti-6-His antibody, detection with HRP anti-human IgG Fc
Description: as §1

[11] = biological target: T5, mouse EphA4 extracellular domain-SEAP-His protein (mouse, UniProt Q03137 20-547); experiment: ELISA: mouse EphA4 extracellular domain-SEAP-His captured by anti-6-His antibody, detection with HRP anti-human IgG Fc
T5 construct: not shown: SEAP and histidine tag
Description: as §1

| Binder | EC50 (read off the curve) [1] | binding result [2] | binding result [3] | IC50 [4] | koff [5] | kon [5] | IC50 [6] | EC50 (read off the curve) [7] | Kd [8] | binding result [9] | EC50 (read off the curve) [10] | EC50 (read off the curve) [11] |
| --- | --- | --- | --- | --- | --- | --- | --- | --- | --- | --- | --- | --- |
| B1 | ~20 pM | no binding (tested: 10 nM) | no binding (tested: 10 nM) | 3900 pM | 0.000251 s⁻¹ | 537000 M⁻¹ s⁻¹ | 3000 pM | ~20 pM | 467 pM | binds | ~20 pM | ~20 pM |
| B2 | ~40 pM | no binding (tested: 10 nM) | no binding (tested: 10 nM) | 4800 pM | 8.01e-05 s⁻¹ | 512000 M⁻¹ s⁻¹ | 4100 pM | ~40 pM | 156 pM | binds | ~40 pM | ~40 pM |
